Measured values from paper PMC12447900.

Experiments:
[1] = molecular target: recombinant HA-tagged Vimentin (Vimentin-HA) (human) (UniProt P08670); experiment: ELISA; Vimentin-HA coated as ligand at 10 ug/ml in PBS on polystyrene wells; AP-MS candidate as analyte, 1 h at RT in PBS, 0.1 % BSA, 0.02 % Tween-20; detected by anti-SpyTag antibody; approximate Kd by one-site total saturation binding fit
[2] = molecular target: EPHA2, recombinant ectodomain (human) (UniProt P29317); experiment: ELISA; AP-MS candidate coated as ligand at 10 ug/ml in PBS on polystyrene wells; Vimentin-HA as analyte, 30 min at RT in PBS, 0.1 % BSA, 0.02 % Tween-20; detected by anti-HA-tag antibody; approximate Kd by one-site total saturation binding fit
[3] = molecular target: EPHB2, recombinant ectodomain (human) (UniProt P29323); experiment: as above
[4] = molecular target: LRRC15, recombinant ectodomain (human) (UniProt Q8TF66); experiment: as above

Kd [1] [nM]	Kd [2] [nM]	Kd [3] [nM]	Kd [4] [nM]	Substance
232				DKK1, recombinant (from UniProt O94907 32-266) (ligand)
119				TFRC, recombinant ectodomain (from UniProt P02786 89-760) (receptor)
	20.7	65.3	53.6	recombinant HA-tagged Vimentin (Vimentin-HA) (from UniProt P08670 1-466) (natural protein)
